Reference: patent US20230192897A1 (NUMAB THERAPEUTICS, published 2023)

T1: mouse CD137-Fc chimeric protein (mouse, UniProt P20334 24-187, limits assumed)
T1 sequence (looked up): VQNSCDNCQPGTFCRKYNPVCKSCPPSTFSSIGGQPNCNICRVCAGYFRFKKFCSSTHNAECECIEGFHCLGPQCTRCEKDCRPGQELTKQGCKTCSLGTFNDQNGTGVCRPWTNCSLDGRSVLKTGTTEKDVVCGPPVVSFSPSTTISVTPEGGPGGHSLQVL

B1: PRO1125 (bispecific antibody)
chain: DIQMTQSPSSLSASVGDRVTITCQASQSINDYLAWYQQKPGKSPKLLIYKASTLASGVPSRFSGSGSGTDFTLTISSLQPEDFATYYCQQGYIITDIDNVFGTGTKVTVLGGGGGSQVQLQESGPGLVKPSETLSLTCKVSGFSFSNSYWICWIRQPPGKGLEWIGCTFVGSSDSTYYANWAKGRVTISVDSSKNQFSLKLSSVTAADTAVYYCARHPSDAVYGYANNLWGQGTLVTVSSGGGGSGGGGSGGGGSGGGGSIQMTQSPSSLSASVGDRVTITCQASQSINNVLAWYQQKPGKAPKLLIYRASTLASGVPSRFSGSGSGTDFTLTISSLQPEDFATYYCQSSYGNYGDFGTGTKVTVLGGGGGSQVQLQESGPGLVKPSETLSLTCKVSGFSFSSGYDMCWVRQPPGKGLEWIACVVAGSVDITYYASWAKGRVTISVDSSKNQFSLKLSSVTAADTAVYFCARKDAYSDAFNLWGQGTLVTVSS
notes: scDb; also called 38-02-A04 sc01 scDb-i/33-03-G02 sc02 IF scDb-o
B2: PRO1481 (other)
chain: DIQMTQSPASLSASVGDRVTITCQASQSIGTYLAWYQQKPGKPPKLLIYRAFILASGVPSRFSGSGSGTDFTLTISSLQPEDFATYYCQSNFYSDSTTIGPNAFGTGTKVTVLGGGGGSESQLVESGGGLVQPGGSLRLSCAASGFSFSANYYPCWVRQAPGKGLEWIGCIYGGSSDITYDANWTKGRFTISRDNSKNTVYLQMNSLRAEDTAVYFCARSAWYSGWGGDLWGPGTLVTVSSGGGGSGGGGSGGGGSGGGGSFQLTQSPSSLSASVGDRVTITCQASQSISNRLAWYQQKPGKPPKLLIYSASTLASGVPSRFSGSGSGTDFTLTISSLQPEDFATYYCQSTYYGNDGNAFGTGTKVTVLGGGGGSEVQLVESGGGLVQPGGSLRLSCAASGFSFNSDYWIYWVRQAPGKGLEWIASIYGGSSGNTQYASWAQGRFTISRDNSKNTVYLQMNSLRAEDTAVYFCARGYVDYGGATDLWGQGTLVTVSSGGGGSGGGGSIQMTQSPSSLSASVGDRVTITCQSSESVYSNNQLSWYQQKPGQPPKLLIYDASDLASGVPSRFSGSGSGTDFTLTISSLQPEDFATYYCAGGFSSSSDTAFGGGTKLTVLGGGGGSGGGGSGGGGSGGGGSEVQLVESGGGLVQPGGSLRLSCAASGFSLSSNAMGWVRQAPGKGLEYIGIISVGGFTYYASWAKGRFTISRDNSKNTVYLQMNSLRAEDTATYFCARDRHGGDSSGAFYLWGQGTLVTVSS
notes: trispecific scDb-scFv; also called 38-27-A11 sc03 scDb-i/37-20-B03 sc09.1 scDb-o/19-01-H04 sc03 scFv
B3: PRO1432 (other)
chain: DIQMTQSPSSLSASVGDRVTITCQASQSINNVLAWYQQKPGKAPKLLIYRASTLASGVPSRFSGSGSGTDFTLTISSLQPEDFATYYCQSSYGNYGDFGCGTKVTVLGGGGGSQVQLQESGPGLVKPSETLSLTCKASGFSFSSGYDMCWVRQPPGKGLEWIACVVAGSVDITYYASWAKGRVTISKDSSKNQVSLKLSSVTAADTAVYYCARKDAYSDAFNLWGQGTLVTVSSGGGGSGGGGSGGGGSGGGGSIQMTQSPSSLSASVGDRVTITCQASQSINDYLAWYQQKPGKAPKLLIYKASTLASGVPSRFSGSGSGTDFTLTISSLQPEDFATYYCQQGYIITDIDNVFGTGTKVTVLGGGGGSEVQLVESGGGLVQPGGSLRLSCAASGFSFSNSYWICWVRQAPGKCLEWIGCTFVGSSDSTYYANWAKGRFTISRDNSKNTVYLQMNSLRAEDTAVYYCARHPSDAVYGYANNLWGQGTLVTVSSGGGGSGGGGSIQMTQSPSSLSASVGDRVTITCQSSESVYSNNQLSWYQQKPGQPPKLLIYDASDLASGVPSRFSGSGSGTDFTLTISSLQPEDFATYYCAGGFSSSSDTAFGGGTKLTVLGGGGGSGGGGSGGGGSGGGGSEVQLVESGGGLVQPGGSLRLSCAASGFSLSSNAMGWVRQAPGKGLEYIGIISVGGFTYYASWAKGRFTISRDNSKNTVYLQMNSLRAEDTATYFCARDRHGGDSSGAFYLWGQGTLVTVSS
notes: trispecific scDb-scFv; also called 33-03-G02 sc18 scDb-i/38-02-A04 sc13 scDb-o/19-01-H04 sc03 scFv

Columns and labels:
[1] = target: T1, mouse CD137-Fc chimeric protein; assay: SPR
Protocol: (§1) Affinity to PDL1 of the different species was determined by SPR measurements using a Biacore T200 device (GE Healthcare). An antibody specific for the Fc region of human IgGs was immobilized on a sensor chip (CM5 sensor chip, GE Healthcare) by amine-coupling. For all formats, with the exception of the Fc containing Morrison formats, PDL1-Fc chimeric protein from different species were captured by the immobilized antibody.
(§2) Three-fold serial dilutions of the molecules specific for PDL1 (0.12-90 nM) were injected into the flow cells for three minutes and dissociation was monitored for 10 minutes. After each injection cycle, surfaces were regenerated with one injection of a 3 M MgCl₂ solution. The apparent dissociation (kd) and association (kₐ) rate constants and the apparent dissociation equilibrium constant (KD) were calculated using one-to-one Langmuir binding model. Affinity to CD137 of the different species was determined using the identical setup as for PDL1 with the exception that CD137-Fc chimeric protein from different species were captured by the immobilized antibody.

Fc tagged human PDL1 = target: T2, Fc tagged human PDL1 (human, UniProt Q9NZQ7 19-239); assay: SPR
T2 construct: Bought (Sino Biological, cat. 10084-H02H); captured on the SPR chip; also called PDL1-Fc chimeric protein
Protocol: as §1, §2

Fc tagged human CD137 = target: T3, Fc tagged human CD137 (human, UniProt Q07011 24-186); assay: SPR
T3 construct: also called CD137-Fc chimeric protein
Protocol: as §1, §2

[2] = target: T4, CD137 on Jurkat NFkB reporter cells (human, UniProt Q07011 24-255); assay: cell-based or functional assay
biotinylated human PDL1 [3] = target: T5, biotinylated human PDL1 (human, UniProt Q9NZQ7 19-238, limits assumed, biotinylated); assay: competition ELISA PD-1/PDL1
T5 construct: also called biotinylated PDL1
Protocol: (§3) Plates were blocked for 1 hour at room temperature by adding 300 μl of PBS with i%BSA and 0.2% tween (dilution buffer) to each well. Inhibitors were serially diluted in 3-fold steps to final concentrations ranging from 300 to 0.005 ng/ml in dilution buffer containing 1 ng/ml biotinylated human PDL1. The mixtures were pre-incubated for 1 hour at room temperature under gentle agitation on a rotating mixer (21 rpm) and added to the microplates after 3 wash cycles with 450 μl wash buffer per well. Plates were incubated for 1.5 hours at room temperature under gentle agitation, then 10 ng/ml streptavidin-polyHRP40 was added to each microplate well after three washes with 450 μl of wash buffer per well. After 1 h incubation at RT, plates were washed three times with 450 μl wash buffer and TMB substrate solution was added. The enzymatic reaction was stopped after 6 minutes by addition of 1 M HCl and absorbance was measured at 450 nm using 690 nm as a reference wavelength. For calculation of IC₅₀ values, a four-parameter logistic (4PL) curve fit was performed in Graph Pad Prism using reference subtracted values.

human PDL1 on cells = human PDL1 on cells (human, UniProt Q9NZQ7 19-290); assay: cell-based or functional assay
[4] = target: T4, CD137 on Jurkat NFkB reporter cells; assay: cell-based or functional assay; remark: listed apart in the source
biotinylated human PDL1 [5] = target: T5, biotinylated human PDL1; assay: competition ELISA B7.1/PDL1
Protocol: as §3, with “1% BSA” for “i%BSA”, “Inhibitors were serially diluted in 3-fold steps to final concentrations ranging from 300 to 0.005 ng/ml in dilution buffer containing 1 ng/ml biotinylated human PDL1.” left out

Row | Binder | Kd (Fc tagged human PDL1) [nM] | koff (Fc tagged human PDL1) [s⁻¹] | kon (Fc tagged human PDL1) [M⁻¹ s⁻¹] | Kd (Fc tagged human CD137) [nM] | kon (Fc tagged human CD137) [M⁻¹ s⁻¹] | Area under the curve (calculated using PRO885 normalized data), first line (6 h by the order of the upper part) [2] | Area under the curve (calculated using PRO885 normalized data), second line (24 h by the order of the upper part) [2] | EC50 [ng/ml], NF-kB reporter, HCC827 + IFNg, +HSA, 6 h [2] [ng/mL] | IC10/EC90 ratio, first line (6 h by the order of the upper part) [2] | IC10/EC90 ratio, second line (24 h by the order of the upper part) [2] | Maximum NF-kB activation (rel. to PRO1186) [%], first line (6 h by the order of the upper part) [2] [%] | Maximum NF-kB activation (rel. to PRO1186) [%], second line (24 h by the order of the upper part) [2] [%] | rel. Area under the curve (AUCsample/AUCPRO1186), first line (6 h by the order of the upper part) [2] [fold] | rel. Area under the curve (AUCsample/AUCPRO1186), second line (24 h by the order of the upper part) [2] [fold] | rel. EC50 (EC50, PRO1186/EC50, sample), NF-kB reporter, 6 h [2] [fold] | rel. EC50 (EC50, PRO1186/EC50, sample), NF-kB reporter, 24 h [2] [fold] | rel. IC10/EC90 (ratio of sample/ratio of PRO1186), first line (6 h by the order of the upper part) [2] [fold] | rel. IC10/EC90 (ratio of sample/ratio of PRO1186), second line (24 h by the order of the upper part) [2] [fold] | koff (Fc tagged human CD137) [s⁻¹] | IC50 (biotinylated human PDL1 [3]) [ng/mL] | also measured
1 | B1 | 0.067 | 0.00011 | 1.7e+06 | 3.7 | 200000 | – | – | – | – | – | – | – | – | – | – | – | – | – | – | – | Kd [1]: 510 nM; koff [1]: 0.27 s⁻¹
2 | B2 | 0.0092 | – | 4.7e+06 | 0.33 | 630000 | 292 | 254 | 7.22 | 23.7 | 41 | 147 | 117 | 1.37 | 1 | 1.04 | 0.58 | 1.71 | 5.72 | 0.0002 | 2.69 | rel. IC50 (IC50 avelumab/IC50 test) (biotinylated human PDL1 [3]): 0.84 fold; IC50 (ng/ml), NF-AT potency assay, +HSA (human PDL1 on cells): 40.6 ng/mL; rel. IC50 (avelumab/test), +HSA (human PDL1 on cells): 0.92 fold; IC50 (ng/ml) (EC50 in Table 16C), NFkB reporter, HCC827 + IFNg, 24 h, +HSA [4]: 5.51 ng/mL; rel. IC50 (PRO1186/test), 24 h [4]: 0.58 fold; IC50 (biotinylated human PDL1 [5]): 10.1 ng/mL; rel. IC50 (IC50 avelumab/IC50 test) (biotinylated human PDL1 [5]): 1.45 fold
3 | B3 | – | 4.4e-05 | 4.2e+06 | 0.75 | 600000 | 111 | 150 | 19.4 | 26.8 | 3.57 | 63.4 | 83.8 | 0.59 | 0.81 | 0.67 | 0.75 | 0.36 | 0.16 | 0.00045 | 3.26 | rel. IC50 (IC50 avelumab/IC50 test) (biotinylated human PDL1 [3]): 0.43 fold; IC50 (ng/ml), NF-AT potency assay, +HSA (human PDL1 on cells): 18.5 ng/mL; rel. IC50 (avelumab/test), +HSA (human PDL1 on cells): 1.98 fold; IC50 (ng/ml) (EC50 in Table 16C), NFkB reporter, HCC827 + IFNg, 24 h, +HSA [4]: 21.9 ng/mL; rel. IC50 (PRO1186/test), 24 h [4]: 0.75 fold; IC50 (biotinylated human PDL1 [5]): 2.83 ng/mL; rel. IC50 (IC50 avelumab/IC50 test) (biotinylated human PDL1 [5]): 0.99 fold
